Experimental data as given in the supplement of paper PMC10567573.
± gives the standard deviation.

Experiment: protein stability index of a GFP-peptide fusion (GPS, HEK-293T) (PSI 1-6); higher = more stable
[1] = treatment: DMSO, c terminus: a fixed tail appended
[2] = treatment: MLN4924 1 uM, 8 h, c terminus: a fixed tail appended
[3] = treatment: DMSO, c terminus: native
[4] = treatment: MLN4924 1 uM, 8 h, c terminus: native
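Also: 24-mer peptide tiles fused after GFP, lentivirally expressed, FACS-sorted into six equal bins by GFP/DsRed ratio, decoded by Illumina sequencing, PSI is the read-weighted mean bin number.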

Sequence | protein stability index [1] | protein stability index [2] | protein stability index [3] | protein stability index [4]
RGLGSQASTVTEIVKQQDPLVYKA [ACSBG2] | 4.32 ± 0.041 | 4.31 ± 0.52 | – | –
RGLRGEPGPQGSAGQRGEPGPKGD [EMID1] | 5.19 ± 0.4 | 5.41 ± 0.6 | – | –
RGMATKLLARPGTGEHREFKLDKK [FBF1] | 4.47 ± 0.33 | 4.62 ± 0.13 | – | –
RGTHAVVGVATARAPLHSVGYTAL [SPSB4] | 2.68 ± 0.27 | 2.63 ± 0.41 | – | –
RHAQTISGHALRILIVDWDVHHGN [HDAC6] | 2.18 ± 0.18 | 2.34 ± 0.4 | – | –
RHCKKYWLISEEEKTQKNQCWKSL [FBXO3] | 2.5 ± 0.35 | 2.96 ± 0.4 | – | –
RIRAILSTYRKRTPVMEGYVEVKE [LOXL2] | 2.62 ± 0.35 | 2.67 ± 0.38 | – | –
RIRSQIGNTESELKKLAEENPDLQ [GDAP1] | 5.42 ± 0.18 | 5.39 ± 0.12 | – | –
RLENRYEALAKQVASEMRFVQDLV [DAPK3] | 2.5 ± 0.16 | 2.45 ± 0.25 | – | –
RLHLAFKRQVPTEQAQAYAERLGV [RAB40B] | 3.13 ± 0.2 | 3.1 ± 0.26 | – | –
RLNFQTPGMASHPPIPILELADHI [PTPRD] | 3.23 ± 0.2 | 3.08 ± 0.087 | – | –
RLTQYMDGSGMPKTMQSEETRVWH [CAMK2D] | 3.44 ± 0.47 | 3.51 ± 0.19 | – | –
RLTREVEATRRALIDRMVNLHQA [DDIT3] | – | – | 3.44 ± 0.073 | 3.83 ± 0.32
RLVLCMELANGKPQTRSGPECGLA [ADAMTSL2] | – | 2.22 ± 0.53 | – | –
RLWHTACASDEGEVIVFGGCANNL [KLHDC2] | 2.75 ± 0.34 | 2.89 ± 0.44 | – | –
RNLGKVVHYAKVQLRFQHSQDVSD [PLEKHN1] | 2.49 ± 0.44 | 2.6 ± 0.33 | – | –
RPLGIRAGPNGTLFVADAYKGLFE [APMAP] | 2.66 ± 0.27 | 2.61 ± 0.44 | – | –
RPSLVIHLRIHTGEKPYKCTHCSK [ZNF449] | 2.51 ± 0.49 | 2.31 ± 0.54 | – | –
RQLLCLIDYYESKIRKIHTQRQYK [CEP70] | 2.44 ± 0.37 | 2.95 ± 0.25 | – | –
RQPRDELERVRVSCTIIFLASIFQ [TMEM175] | 2.11 ± 0.15 | 2.17 ± 0.28 | – | –
RRDAETWFLSKTEELNKEVASNSE [KRT16] | 5.09 ± 0.35 | 5.19 ± 0.12 | – | –
RRGSWRLPYTDGLSWELLDSHLGG [CTBP1-DT] | 2.09 ± 0.09 | 2.66 ± 0.26 | – | –
RRQTSMTDFYHSKRRLIFSKRKP [CDKN1A] | – | – | 3.33 ± 0.28 | 3.71 ± 0.53

Sequence | protein stability index [1] | protein stability index [2] | protein stability index [3] | protein stability index [4]
RRYVARLEMRRRCTWSIFQSIEYA [PPEF2] | 1.86 ± 0.94 | 2.26 ± 0.14 | – | –
RSEAVAQLWGQKKKNSNMTYEKLS [ELF3] | 3.52 ± 0.21 | 3.8 ± 0.18 | – | –
RSRGASQKKQKLEQKAAGSASAKR [FATE1] | 5.07 ± 0.27 | 5.06 ± 0.31 | – | –
RSTNLLAAETASLEEQLQGWGEVM [ARL6IP1] | 3.85 ± 0.32 | 4.15 ± 0.23 | – | –
RTKQVLHTFKTRFTQPLLPAFTVW [FSD1] | 2.53 ± 0.32 | 2.44 ± 0.46 | – | –
RTTVFQYPVGWPPVQELPPSLRAP [ZMAT5] | 2.8 ± 0.17 | 2.79 ± 0.29 | – | –
RVPLGRLELLEEVLALGLRTDVGI [RSAD1] | 2.1 ± 0.44 | 2.15 ± 0.31 | – | –
RYWRSLRVMKVEDREGPSSSKLVT [HDAC6] | 2.79 ± 0.22 | 3.07 ± 0.44 | – | –
SAAIHISETLEQKPHFESSTVKTE [EPB41L3] | 4.92 ± 0.66 | 5.06 ± 0.52 | – | –
SAESQGLDGAGLMGFVPHNGSLYG [ADAMTSL2] | – | 3.47 ± 1.6 | – | –
SAFGNVKLVVHDCPVWDIFDSDWY [RHOBTB3] | 2.17 ± 0.33 | 2.2 ± 0.12 | – | –
SAGGHGGLLNDTSAPHLENSGHTI [KCNA4] | 4.21 ± 0.46 | 4.48 ± 0.2 | – | –
SAGKRGPDRGSPEYRQRRERNNIA [CEBPD] | 4.61 ± 0.2 | 4.41 ± 0.039 | – | –
SAGNRTHKARTRPKARKQGVSPAD [ADAMTSL2] | 4.75 ± 0.94 | 5.07 ± 0.8 | – | –
SASPIKDQPVMAVKTGEDGSNLDD [FANCE] | 5.66 ± 0.27 | 5.56 ± 0.2 | – | –
SASSSTTCCESTQRSVSDVASGST [IRX6] | 5.12 ± 0.26 | 5.26 ± 0.11 | – | –
SATSKLIHPDEDISLEERRAQLPK [ZNF207] | 4.9 ± 0.28 | 5.08 ± 0.2 | – | –
SCPGSSYRTVVRPTYKVMYKIVTA [EMID1] | 2.37 ± 0.53 | 2.22 ± 0.26 | – | –
SDRPFKCNQCGKCFIQSSHLIRHQ [ZNF8] | 3.31 ± 0.17 | 3.76 ± 0.61 | – | –
SECGKAFPRKSELTEHQRIHTGIK [ZNF649] | 4.07 ± 0.19 | 4.2 ± 0.062 | – | –
SEEELTHIFGDLDSYIPLHEDLLT [NET1] | 3.88 ± 0.19 | 4.03 ± 0.33 | – | –
SEKSQREDEEEEEGENYQKGERGE [CHGB] | 5.48 ± 0.28 | 5.58 ± 0.28 | – | –
SELQAYIAQCQDSPTSGKFRRGSG [MCOLN1] | 4.21 ± 0.075 | 4.31 ± 0.15 | – | –

Sequence | protein stability index [1] | protein stability index [2] | protein stability index [3] | protein stability index [4]
SFACQCPEGHVLRSDGKTCAKLDS [MATN2] | 4.41 ± 0.39 | 4.88 ± 0.27 | – | –
SFHSSGEKQKQPRWREGTKDSHDP [PBXIP1] | 5.08 ± 0.17 | 5.19 ± 0.24 | – | –
SFNILVEDRVKLFGIEIEVTDIND [PCDHGA10] | 2.17 ± 0.4 | 2.55 ± 0.59 | – | –
SFVVARYFPAGNVVNEGFFEENVL [GLIPR2] | 2.11 ± 0.55 | 2.33 ± 0.24 | – | –
SFWNSSHPRGWNDHVHILDTETFT [KLHDC2] | 2.54 ± 0.17 | 2.39 ± 0.3 | – | –
SGERWLERYEIDSLIGKGSFGQVV [DYRK1B] | 2.97 ± 0.2 | 3.1 ± 0.25 | – | –
SGGGRDSSSSILRWLPEKRANPCL [ELOA2] | 3.11 ± 0.26 | 3.47 ± 0.17 | – | –
SGQRLGGYRTSAVASGLQFDVETR [WDFY2] | 3.82 ± 0.23 | 3.74 ± 0.27 | – | –
SGRDRVGRQERGLPPSMERGYPPP [RBMX] | 4 ± 0.38 | 3.94 ± 0.19 | – | –
SGRNGEVSLDISPDLPFQIKPSEN [PCDHGC5] | 4.47 ± 0.25 | 4.56 ± 0.26 | – | –
SHKRKRSSGSFCYCHPDSETDEDE [GMCL1] | 5.21 ± 0.4 | 5.34 ± 0.2 | – | –
SHLQWQESRLKRSNPLAREIFRRH [ZSCAN9] | 3.18 ± 0.29 | 3.35 ± 0.27 | – | –
SHRPNQHNTVKLGAFQAQEKELVF [PRIM1] | 3.06 ± 0.62 | 3.25 ± 0.37 | – | –
SIALRNISLAKGPPGPKGDQGDEG [SCARA5] | 4.68 ± 0.09 | 4.86 ± 0.2 | – | –
SIQSLTLEWNSLGTWDDAFATFCG [LRRC45] | 2.25 ± 0.25 | 2.08 ± 0.53 | – | –
SKCKIIHTDIKPENILMCVDDAYV [SRPK2] | 2.39 ± 0.33 | 2.5 ± 0.17 | – | –
SKDWVFLNYTYKRFEGLTQRGSIP [STK38L] | 2.54 ± 0.78 | 2.48 ± 1 | – | –
SKMDQLAKELTAEKRLEGQEEEED [CHGA] | 5.54 ± 0.34 | 5.42 ± 0.36 | – | –
SKNEVGIFTTPNFDETSSATTIST [KMT2E] | 4.76 ± 0.22 | 4.79 ± 0.17 | – | –
SLADGGSASPIKDQPVMAVKTGED [FANCE] | 5.46 ± 0.23 | 5.6 ± 0.16 | – | –
SLGQDLRRLRQELLKTEALKRQAQ [DAPK3] | 3.09 ± 0.59 | 2.96 ± 0.14 | – | –
SLQNSLECAMETTEEQTRQERQGP [NECAB1] | 5.09 ± 0.17 | 5.22 ± 0.25 | – | –
SMGFSARYNFTPDPDFKDLGALKP [NETO1] | 3.02 ± 0.33 | 3.26 ± 0.17 | – | –

Sequence | protein stability index [1] | protein stability index [2] | protein stability index [3] | protein stability index [4]
SNFDDFPESDILQPVPNTTEPDYK [STK38L] | 5.59 ± 0.25 | 5.24 ± 0.29 | – | –
SNNITLREDQLDTVLAVLEDSSRD [INTS4] | 5.25 ± 0.18 | 5.28 ± 0.16 | – | –
SNVQEVRCPVTVCGDVHGQFHDLM [PPP2CA] | 3.54 ± 0.41 | 3.49 ± 0.31 | – | –
SPRRSLYKLVGSPPWKEAFRQRCL [RPAIN] | 2.27 ± 0.26 | 2.4 ± 0.23 | – | –
SPRRVGFVGAGRMAGAIAQGLIRA [PYCR3] | 2.66 ± 0.15 | 2.78 ± 0.14 | – | –
SPSTRGSPNRSLPSPGVLCGSARP [ATF4] | 4.49 ± 0.46 | 4.88 ± 0.18 | – | –
SPWNFLGDELYEQSDEEQDSVKVA [CLPTM1] | 5.32 ± 0.21 | 5.36 ± 0.4 | – | –
SQGLAREQHAGTSEGLHLAGTAGH [FBF1] | 4.76 ± 0.16 | 4.84 ± 0.36 | – | –
SQIRLNREHKETCEMDWSDKMEAY [TEKT4] | 4.47 ± 0.11 | 4.58 ± 0.28 | – | –
SQSHCYRTCFSPASDGSDFTFLRP [PCDHGC5] | 2.15 ± 0.26 | 2.09 ± 0.16 | – | –
SRAEPIRTTVFQYPVGWPPVQELP [ZMAT5] | 2.38 ± 0.41 | 2.82 ± 0.34 | – | –
SRAPQLHLEYRFYKQLGSAGEGLP [CSNK1G1] | 2.73 ± 0.44 | 2.84 ± 0.19 | – | –
SRKSSIPNNKEIPSHHPTDPVELR [PTPRD] | 4.83 ± 0.1 | 5.04 ± 0.35 | – | –
SRREIRKIMGVEEEDDDDDDDDNL [ANKRD40] | 5.44 ± 0.12 | 5.53 ± 0.16 | – | –
SRVAGFNPALQLILTRTDKTLNKK [TOR1AIP2] | 4.25 ± 0.3 | 4.33 ± 0.18 | – | –
SRVTDAAFNFLLVWYYCTLTIRES [TMEM120A] | 3 ± 0.1 | 2.62 ± 0.45 | – | –
SRYRSLRPNRQLGSMVEIAKQLQA [TRIM39] | 2.74 ± 0.28 | 2.92 ± 0.34 | – | –
SSEHVTESVADLLALEEPVDYKQS [SLC6A17] | 5.17 ± 0.26 | 5.25 ± 0.34 | – | –
SSETPPPPPPPNEINPPPHTMEEE [EIF5] | 5.52 ± 0.31 | 5.46 ± 0.3 | – | –
SSFSDPFFVVETLCIIWFSFELLV [KCNA3] | 3.06 ± 0.48 | 3.2 ± 0.32 | – | –
